Data on one molecule can be found in patent publication US20210188989A1 (SYSTIMMUNE, published 2021).

Test [1] addresses T1, recombinant human 4-1BB extracellular domain protein (human, UniProt Q07011 24-186).
T1 construct: extracellular domain; Analyte in the Octet assay; also called CD137; TNFRSF9
The experiment in a line: Octet BLI; chimeric IgG from transfection supernatant on anti-human Fc biosensor; recombinant human 41BB; column kdis(1/s) Human. An excerpt:
(§1) The heavy and light chain expression plasmids generated from each well were transiently co-transfected to produce rabbit/human chimeric antibodies. Recombinant antibody supernatants were confirmed to contain antibodies specific for human and cynomolgus 4-1BB using bio-layer interferometry analysis on a ForteBio Octet Red 96 instrument. Anti-human Fc biosensors (Pall ForteBio) were used to capture antibodies in the supernatants. Association to human or cynomolgus 4-1BB was observed by real-time interferometry by placing the biosensors in wells containing recombinant human or cynomolgus 4-1BB extracellular domain protein. Dissociation was measured after transfer of the biosensors into wells containing 10× kinetics buffer (Pall ForteBio). The software provided by the manufacturer was used to analyze the interferometry data. A summary of the primary BCC screening data and the corresponding screening data for 34 recombinant chimeric rabbit/human IgG antibodies is shown in FIG. 2.

Test [2] addresses T2, recombinant cynomolgus 4-1BB extracellular domain protein (cynomolgus, UniProt A9YYE7 24-186).
T2 construct: Analyte in the Octet assay
T2 sequence: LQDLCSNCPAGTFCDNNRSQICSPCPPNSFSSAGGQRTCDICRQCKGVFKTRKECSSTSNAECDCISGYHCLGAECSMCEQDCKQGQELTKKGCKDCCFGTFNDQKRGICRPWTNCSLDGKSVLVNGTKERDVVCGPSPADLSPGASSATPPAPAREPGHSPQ
The experiment in a line: Octet BLI; chimeric IgG from transfection supernatant on anti-human Fc biosensor; recombinant cynomolgus 41BB; column kdis(1/s) Cynomolgus.
Excerpt: as §1
(Biolayer interferometry detects binding as a change in optical thickness at a sensor tip.)

B1: 413F3 (antibody, human IgG1, kappa, V domains shown)
VH: QSLEESGGDLVKPEGSLTLTCTGSGIDFSSNYMCWVRQAPGKGLEWIACIYGDSSDNSYSASWAKGRFTISKTSSTTVTLQMTSLTAADTATYFCARSGYSYLGYFNLWGPGTLVTVSS
VL: DVVMTQTPASVEAAVGGTVTIKCQASQSIYSNLAWYQQKPGQPPKLLIYSTSTLASGVPSRFSGSGSGTEFTLTISDLECADAATYYCQNYYGSSTDSYGNPFGGGTEVVFKR
notes: one of the 34 chimeric antibodies; rabbit variable regions on human IgG1 and human kappa; also called 413F3 chimeric rabbit/human IgG
For orientation: koff means a measure of how fast the partners let go of each other. For the molecule B1, the figures for the koff in test [1] and in test [2] were 0.00054 s⁻¹ and 0.00079 s⁻¹, respectively.
